This is an account of results in PMC11908248 (bioRxiv, 2025).

B1: UNC-116-sfGFP-StrepII (natural protein, C. elegans, UniProt P34540 1-815, looked up)
chain: MEPRTDGAECGVQVFCRIRPLNKTEEKNADRFLPKFPSEDSISLGGKVYVFDKVFKPNTTQEQVYKGAAYHIVQDVLSGYNGTVFAYGQTSSGKTHTMEGVIGDNGLSGIIPRIVADIFNHIYSMDENLQFHIKVSYYEIYNEKIRDLLDPEKVNLSIHEDKNRVPYVKGATERFVGGPDEVLQAIEDGKSNRMVAVTNMNEHSSRSHSVFLITVKQEHQTTKKQLTGKLYLVDLAGSEKVSKTGAQGTVLEEAKNINKSLTALGIVISALAEGTKSHVPYRDSKLTRILQESLGGNSRTTVIICASPSHFNEAETKSTLLFGARAKTIKNVVQINEELTAEEWKRRYEKEKEKNTRLAALLQAAALELSRWRAGESVSEVEWVNLSDSAQMAVSEVSGGSTPLMERSIAPAPPMLTSTTGPITDEEKKKYEEERVKLYQQLDEKDDEIQKVSQELEKLRQQVLLQEEALGTMRENEELIREENNRFQKEAEDKQQEGKEMMTALEEIAVNLDVRQAECEKLKRELEVVQEDNQSLEDRMNQATSLLNAHLDECGPKIRHFKEGIYNVIREFNIADIASQNDQLPDHDLLNHVRIGVSKLFSEYSAAKESSTAAEHDAEAKLAADVARVESGQDAGRMKQLLVKDQAAKEIKPLTDRVNMELTTLKNLKKEFMRVLVARCQANQDTEGEDSLSGPAQKQRIQFLENNLDKLTKVHKQLVRDNADLRVELPKMEARLRGREDRIKILETALRDSKQRSQAERKKYQQEVERIKEAVRQRNMRRMNAPQIVKPIRPGQVYTSPSAGMSQGAPNGSNA
B2: UNC-83a^N-term-mScarlet-StrepII (domain or fragment, C. elegans, UniProt Q23064 1-305, looked up)
chain: MDVMDSFSEVEMPNDISSEDHLLKVIESSAEEVDIFLENCSSLYNLILDSLHNLTSKTISCECLDEMTSTLEKSAKKILAERPEAENSVLLRLNTICCAMDQLRVQHNSRMMSGADSDTASSARSSTSSSTGEMRLWLHEVERRLEINEKRIRVEPNLQLLLSDQQALQLEIQHEGQLLVNRLNKQIKDDHDSDSSEEEKRKTCVDAIRKRWHTIYLNSLSLVCRIEELINHQQASEDSESDPDLVGPPIKRARIRTVGHLTASDTEESEADEEDRHSQTETVVTEDDNVLPFAENEYESIMDGR

In data set [1] the target is GST-KLC-2 (C. elegans) (UniProt P46822). Kind of data set: BLI. On the technique in general: In BLI a coated tip is dipped into the sample, and binding shifts an interference pattern.
Sequence of GST-KLC-2 (C. elegans) (P46822 whole entry): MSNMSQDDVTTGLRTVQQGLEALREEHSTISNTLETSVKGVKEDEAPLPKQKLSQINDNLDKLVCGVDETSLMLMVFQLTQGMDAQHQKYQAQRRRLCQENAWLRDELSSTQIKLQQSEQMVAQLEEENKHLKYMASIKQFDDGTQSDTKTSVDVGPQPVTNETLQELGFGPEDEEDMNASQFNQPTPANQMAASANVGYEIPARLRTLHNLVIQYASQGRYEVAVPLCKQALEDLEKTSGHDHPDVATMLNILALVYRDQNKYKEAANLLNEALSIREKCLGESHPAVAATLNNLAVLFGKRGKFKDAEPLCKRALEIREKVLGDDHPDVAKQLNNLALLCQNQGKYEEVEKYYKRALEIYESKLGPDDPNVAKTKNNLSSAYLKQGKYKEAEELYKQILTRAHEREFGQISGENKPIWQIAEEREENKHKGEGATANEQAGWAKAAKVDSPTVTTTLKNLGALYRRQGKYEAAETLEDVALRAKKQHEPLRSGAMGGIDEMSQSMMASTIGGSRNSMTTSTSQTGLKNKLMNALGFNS
Data set [2] has as its target UNC-116-sfGFP-StrepII (C. elegans) (UniProt P34540). Kind of data set: mass photometry.
Data set [3] deals with C. elegans kinesin-1 heterotetramer (UNC-116-sfGFP-StrepII + KLC-2-6xHis) (C. elegans) (UniProt P34540). Briefly: mass photometry.
Data set [4] deals with GST-KLC-2 (C. elegans) (UniProt P46822). Kind of data set: mass photometry.
The data set “mass photometry” concerns the molecule itself. Briefly: mass photometry.
The data set “UNC-116-sfGFP-StrepII” concerns the target B1. Briefly: mass photometry.

A word on the Kd: it is the constant that tells how readily two partners part at equilibrium. Low readings indicate tighter binding, high ones weaker binding. Usually stoichiometry N stands for a count of units in the complex or per binding partner.

Bounds are passed on as bounds.

Consider “UNC-83a-mScarlet-StrepII (from UniProt Q23064 1-1041) (domain or fragment)”, for which, in the data set with GST-KLC-2 (C. elegans) [1], the equilibrium dissociation constant (Kd) is more than 1000 nM. In data set [2], this molecule came in with a percent of particles in the peak of the complex of 99 % peak and a stoichiometry N (UNC-83a monomer per UNC-116 dimer) of 1. In addition, in data set [3], the percent of particles in the peak of the complex worked out at 97 % peak and the stoichiometry N (UNC-83a monomer per kinesin-1 tetramer) was 1.

In the data set with GST-KLC-2 (C. elegans) [4], “UNC-83c-mScarlet-StrepII (domain or fragment)” had a percent of particles in the peak of the complex of 97 % peak and a stoichiometry N (UNC-83c monomer per KLC-2 monomer) of 1.

With B1, the “stoichiometry N” value in “mass photometry” amounted to 2.

B2: the “stoichiometry N” value is 2 in the data set “mass photometry” and 1 UNC-83a^N-term monomer per UNC-116 dimer with UNC-116-sfGFP-StrepII.
